From publication PMC8080530, “Glucocorticoid receptor Thr524 phosphorylation by MINK1 induces interactions with 14-3-3 protein regulators” (The Journal of Biological Chemistry, 2021)
Read-outs that look alike come from different tables or passages of the source. Non-standard residues stand in square brackets, D forms with d. Residues, ends and D or L forms follow the SMILES beside them. Primed or numbered codes have the meaning given here. No end group written: not given here. *: point of attachment. FITC′ = fluorescein isothiocyanate tag added on resin (method C); FITC = O=C1OC2(c3ccc(O)cc3Oc3cc(O)ccc32)c2ccc(NC(=S)*)cc21; pT = C[C@@H](OP(=O)(O)O)[C@H](N)C(=O)O; pS = N[C@@H](COP(=O)(O)O)C(=O)O

Key:
14-3-3ζ = target: T1, 14-3-3ζ (Homo sapiens, UniProt P63104); assay: FP assay with GR phosphorylated peptides and 14-3-3ζ; assay type: binding
T1 construct: Full-length expression and purification of 14-3-3; made in house; host or cells: E. coli BL21 (DE3)STAR
T1 sequence (P63104 1-245): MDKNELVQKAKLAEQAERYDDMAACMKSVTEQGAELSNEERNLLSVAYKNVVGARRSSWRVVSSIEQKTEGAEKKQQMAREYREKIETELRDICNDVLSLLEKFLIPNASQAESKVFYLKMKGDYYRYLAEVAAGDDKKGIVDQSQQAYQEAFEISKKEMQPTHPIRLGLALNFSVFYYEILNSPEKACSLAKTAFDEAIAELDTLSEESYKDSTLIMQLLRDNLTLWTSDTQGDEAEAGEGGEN
Outline: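 Fluorescence polarization (ex 485/em 520 nm) was read in triplicate after 30-min RT incubation. Binding data were fitted to a standard Hill equation and expressed in mP units. The dynamic range (ΔmP) is the difference between bound and free peptide signals.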

14-3-3σ = target: T2, 14-3-3σ (Homo sapiens, UniProt P31947); assay: FP assay with GR phosphorylated peptides and 14-3-3σ; assay type: binding; details: FITC-labeled peptide titrated with 14-3-3σ, 30 min RT, triplicates
T2 construct: Full-length expression and purification of 14-3-3; made in house; host or cells: E. coli BL21 (DE3)STAR
T2 sequence (P31947 1-248): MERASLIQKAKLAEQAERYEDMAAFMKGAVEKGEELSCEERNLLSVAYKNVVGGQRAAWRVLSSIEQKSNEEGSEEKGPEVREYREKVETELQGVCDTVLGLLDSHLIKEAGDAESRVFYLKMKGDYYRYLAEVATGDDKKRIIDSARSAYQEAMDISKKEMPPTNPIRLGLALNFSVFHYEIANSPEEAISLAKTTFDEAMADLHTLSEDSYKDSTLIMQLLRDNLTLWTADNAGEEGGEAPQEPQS
Procedure: After 30-min incubation at RT, the plates were read on a plate reader PHERAstar (BMG LABTECH GmbH) for FP signal using […] and standard excitation (485 nm) and emission (520 nm). Measurements were performed as triplicates. Binding data were fit to a standard Hill equation using the software Genedata Screener. The figures were made using the software GraphPad Prism 8. FP data were expressed as millipolarization (mP) units, and the dynamic range (ΔmP) was the difference of the signals from the bound peptide and free peptide. Errors are the standard error of the fit.

[1] = target: T3, human 14-3-3ζ, full length, 6His-Linker-h14-3-3 (human, UniProt P63104 1-245); assay: FP
T3 chain: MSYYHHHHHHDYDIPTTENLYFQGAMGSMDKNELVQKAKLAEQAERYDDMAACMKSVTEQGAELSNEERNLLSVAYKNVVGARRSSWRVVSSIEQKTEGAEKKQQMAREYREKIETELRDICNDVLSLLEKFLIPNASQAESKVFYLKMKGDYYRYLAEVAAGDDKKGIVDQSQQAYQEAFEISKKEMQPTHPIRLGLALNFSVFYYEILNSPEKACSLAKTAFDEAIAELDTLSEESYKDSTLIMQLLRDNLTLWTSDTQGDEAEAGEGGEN

[2] = target: T3, human 14-3-3ζ, full length, …; assay: SPR
[3] = target: T4, human 14-3-3σ, full length, 6His-Linker-h14-3-3 (human, UniProt P31947 1-248); assay: fluorescence polarisation; FITC-labelled peptide at 60 nM (monophosphorylated) or 10 nM (doubly phosphorylated) titrated with 14-3-3ζ or 14-3-3σ in dilution series from 300 μM or 150 μM; 30 min at RT; 384-well plate; Hill fit; triplicates; details: both partners purified
T4 construct: 14-3-3 protein sigma, human, cloned in pProEx Htb; also called σ isoform of human 14-3-3; source: E. coli BL21 (DE3)STAR, purified (Ni-NTA, SEC); not shown: His6 with linker [residues removed], N-terminal, kept
T4 sequence (looked up): T2 sequence (P31947 1-248)

[4] = FITC-labeled peptide 60 nM (monophosphorylated) or 10 nM (doubly phosphorylated) titrated with 14-3-3ζ, 30 min RT, Hill fit, triplicates, read-out: Kd with 14-3-3ζ by FP

## CC(C)C[C@H](NC(=O)[C@H](CC(C)C)NC(=O)[C@H](Cc1ccccc1)NC(=O)[C@H](COP(=O)(O)O)NC(=O)[C@H](CC(=O)O)NC(=O)[C@H](CC(=O)O)NC(=O)[C@H](CCC(=O)O)NC(=O)CNC(=O)[C@H](C)NC(=O)[C@@H](N)CC(C)C)C(=O)N[C@@H](CCC(=O)O)C(=O)NCC(=O)N[C@@H](CC(N)=O)C(=O)O [GR_pS234] (H-LAGEDD[pS]FLLEGN-OH; N-terminus assumed)
14-3-3ζ; [4]
  Kd: > 150000 nM

## CC(C)C[C@H](NC(=O)[C@@H](NC(=O)[C@@H](NC(=O)[C@H](CC(N)=O)NC(=O)[C@H](CO)NC(=O)[C@@H]1CCCN1C(=O)[C@H](COP(=O)(O)O)NC(=O)[C@H](CO)NC(=O)[C@H](CC(C)C)NC(=O)[C@@H](NC(=O)[C@H](CC(C)C)NC(=O)[C@H](CC(=O)O)NC(=O)CN)C(C)C)C(C)C)[C@@H](C)O)C(=O)O [GR_pS267] (H-GDLVLS[pS]PSNVTL-OH; N-terminus assumed)
14-3-3ζ; [4]
  Kd: > 150000 nM

## CSCC[C@H](N)C(=O)N[C@@H](CCCNC(=N)N)C(=O)N1CCC[C@H]1C(=O)N[C@@H](CC(=O)O)C(=O)N[C@H](C(=O)N[C@@H](CO)C(=O)N[C@@H](COP(=O)(O)O)C(=O)N1CCC[C@H]1C(=O)N1CCC[C@H]1C(=O)N[C@@H](CO)C(=O)N[C@@H](CO)C(=O)N[C@@H](CO)C(=O)N[C@@H](CO)C(=O)O)C(C)C [GR_pS404] (H-MRPDVS[pS]PPSSSS-OH; N-terminus assumed)
14-3-3ζ; [4]
  Kd: > 150000 nM

## CC[C@H](C)[C@H](NC(=O)[C@@H](NC(=O)[C@@H](N)CCCCN)[C@@H](C)O)C(=O)N[C@H](C(=O)N1CCC[C@H]1C(=O)N[C@@H](C)C(=O)N[C@@H](COP(=O)(O)O)C(=O)N[C@@H](CC(C)C)C(=O)N1CCC[C@H]1C(=O)N[C@@H](CCC(N)=O)C(=O)N[C@@H](CC(C)C)C(=O)N[C@H](C(=O)N1CCC[C@H]1C(=O)NCC(=O)NCC(=O)NCC(=O)NCC(=O)NCC(=O)N[C@@H](CCCNC(=N)N)C(=O)N[C@@H](CO)C(=O)N[C@@H](Cc1ccc(O)cc1)C(=O)N[C@@H](CCCNC(=N)N)C(=O)N[C@@H](CCC(N)=O)C(=O)N[C@@H](CO)C(=O)N[C@@H](COP(=O)(O)O)C(=O)N[C@@H](C)C(=O)N[C@@H](CC(N)=O)C(=O)N[C@@H](CC(C)C)C(=O)N[C@@H](CC(C)C)C(=O)N[C@@H](CS)C(=O)N[C@@H](Cc1ccccc1)C(=O)O)[C@@H](C)O)C(C)C [GR_pS524-pS617] (H-KTIVPA[pS]LPQLTPGGGGGRSYRQS[pS]ANLLCF-OH)
14-3-3ζ; FP, doubly phosphorylated 31-mer peptides, triplicates, read-out: Kd with 14-3-3ζ (values in nM)
  Kd: 140 nM

## CC(C)C[C@H](NC(=O)[C@H](CO)NC(=O)[C@H](CCC(=O)O)NC(=O)[C@H](CCCCN)NC(=O)[C@H](CO)NC(=O)[C@@H](N)CC(=O)O)C(=O)N[C@H](C(=O)N1CCC[C@H]1C(=O)NCC(=O)N[C@@H](CCCNC(=N)N)C(=O)N[C@@H](CCC(=O)O)C(=O)N[C@@H](CCC(=O)O)C(=O)N[C@@H](CC(N)=O)C(=O)O)[C@@H](C)OP(=O)(O)O [GR_pT8] (H-DSKESL[pT]PGREEN-OH; N-terminus assumed)
14-3-3ζ; [4]
  Kd: > 150000 nM

## CC[C@H](C)[C@H](NC(=O)[C@H](CCCCN)NC(=O)[C@H](CCCCN)NC(=O)[C@H](CCCCN)NC(=O)[C@@H](NC(=O)[C@H](CCCCN)NC(=O)[C@H](CCCNC(=N)N)NC(=O)[C@H](C)NC(=O)[C@H](CCC(=O)O)NC(=O)[C@H](CC(C)C)NC(=O)[C@@H](N)CC(N)=O)[C@@H](C)OP(=O)(O)O)C(=O)N[C@@H](CCCCN)C(=O)NCC(=O)O [GR_pT493] (H-NLEARK[pT]KKKIKG-OH; N-terminus assumed)
14-3-3σ
  Kd: > 150 µM
14-3-3ζ; [4]
  Kd: > 150000 nM

## CC[C@H](C)[C@H](NC(=O)[C@@H](NC(=O)[C@@H](N)CCCCN)[C@@H](C)O)C(=O)N[C@H](C(=O)N1CCC[C@H]1C(=O)N[C@@H](C)C(=O)N[C@H](C(=O)N[C@@H](CC(C)C)C(=O)N1CCC[C@H]1C(=O)N[C@@H](CCC(N)=O)C(=O)N[C@@H](CC(C)C)C(=O)N[C@H](C(=O)N1CCC[C@H]1C(=O)NCC(=O)NCC(=O)NCC(=O)NCC(=O)NCC(=O)N[C@@H](CCCNC(=N)N)C(=O)N[C@@H](CO)C(=O)N[C@@H](Cc1ccc(O)cc1)C(=O)N[C@@H](CCCNC(=N)N)C(=O)N[C@@H](CCC(N)=O)C(=O)N[C@@H](CO)C(=O)N[C@@H](C)C(=O)N[C@@H](C)C(=O)N[C@@H](CC(N)=O)C(=O)N[C@@H](CC(C)C)C(=O)N[C@@H](CC(C)C)C(=O)N[C@@H](CS)C(=O)N[C@@H](Cc1ccccc1)C(=O)O)[C@@H](C)O)[C@@H](C)OP(=O)(O)O)C(C)C [GR_pT524-S617A] (H-KTIVPA[pT]LPQLTPGGGGGRSYRQSAANLLCF-OH)
14-3-3ζ; read-out: PKd with 14-3-3ζ (converted)
  Kd: 1260 nM

## CC[C@H](C)[C@H](NC(=O)[C@H](CCCNC(=N)N)NC(=O)[C@H](Cc1c[nH]c2ccccc12)NC(=O)[C@@H](N)[C@@H](C)O)C(=O)N[C@@H](CCSC)C(=O)N[C@H](C(=O)N[C@H](C(=O)N[C@@H](CC(C)C)C(=O)N[C@@H](CC(N)=O)C(=O)N[C@@H](CCSC)C(=O)N[C@@H](CC(C)C)C(=O)NCC(=O)NCC(=O)O)[C@@H](C)OP(=O)(O)O)[C@@H](C)O [GR_pT562]
14-3-3ζ; method not given, read-out: Kd with 14-3-3ζ
  Kd: 200000 nM

## {FITC}-KTIVPATLPQLTP (also: phosphothreonine at T524, place in chain not given here)
[1]
  Kd: 38 µM

## RSYRQS[pS]ANLLCF (not fully specified (N-terminus)) [GR_pS617, 13-mer phosphopeptide used for SPR and crystallography]
[2]
  Kd: 27 µM

## KTIVPATLPQLTP (also: phosphothreonine at T524, place in chain not given here) [GR_pT524, 13-mer phosphopeptide used for SPR and crystallography]
[2]
  Kd: 22 µM

B1: GR pS83, FITC-labelled 13-mer phosphopeptide (peptide, UniProt P04150 77-89, looked up)
peptide: {FITC}-DLSKAV[pS]LSMGLY
notes: glucocorticoid receptor (GR), human; 13-mer centred on S83; source: synthetic peptide
[3]
  binding result: binds
[1]
  Kd: 72 µM

B2: GR_pS617, FITC-labelled 13-mer phosphopeptide (peptide, UniProt P04150 611-623, looked up)
peptide: {FITC′}-RSYRQS[pS]ANLLCF
modifications: also: phosphoserine at 617 (S6 or S7)
notes: glucocorticoid receptor (GR), human; 13-mer centred on S617; source: synthetic peptide
[3]
  binding result: binds
[1]
  Kd: 25 µM

## {FITC}-INEQRM[pT]LPCMYD (also: phosphothreonine at T635, place in chain not given here)
[1]
  Kd: 55 µM

B3: GR pT635, FITC-labelled 13-mer phosphopeptide (peptide, UniProt P04150 629-641, looked up)
peptide: {FITC}-INEQRM[pT]LPCMYD
notes: glucocorticoid receptor (GR), human; 13-mer centred on T635; source: synthetic peptide
[3]
  binding result: binds

B4: GR_pS134, FITC-labelled 13-mer phosphopeptide (peptide, UniProt P04150 128-140, looked up)
peptide: {FITC′}-NLNRST[pS]VPENPK
modifications: also: phosphoserine at 134 (S5 or S7)
notes: glucocorticoid receptor (GR), human; 13-mer centred on S134; also called 13-mer peptide centered on GR S134; source: synthetic peptide
[3]
  Kd: 110 µM

B5: GR_pT524, FITC-labelled 13-mer phosphopeptide (peptide, UniProt P04150 518-530, looked up)
peptide: {FITC′}-KTIVPA[pT]LPQLTP
modifications: also: phosphothreonine at 524 (T2, T7 or T12)
notes: glucocorticoid receptor (GR), human; 13-mer centred on T524; source: synthetic peptide
[3]
  binding result: binds

B6: GR pT561, FITC-labelled 13-mer phosphopeptide (peptide, UniProt P04150 555-567, looked up)
peptide: {FITC}-STWRIM[pT]TLNMLG
notes: glucocorticoid receptor (GR), human; 13-mer centred on T561; source: synthetic peptide
[3]
  binding result: binds
